How the values were obtained:
[1] = target: T1, human MD-2 (myeloid differentiation factor 2) (human), Q9Y6Y9; test: SEC; nickel-purified protein on HiLoad 16/60 Superdex 200 in 50 mM sodium acetate, pH 5.0; without additive, or with the anti-aggregation additive (0.2 M MgSO4 for hMD-2) in culture medium and buffers; conditions: remark: other sources report otherwise
T1 chain: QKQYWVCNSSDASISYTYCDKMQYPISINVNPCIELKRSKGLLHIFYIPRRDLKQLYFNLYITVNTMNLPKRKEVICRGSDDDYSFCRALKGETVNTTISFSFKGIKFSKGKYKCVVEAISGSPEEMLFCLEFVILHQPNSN

[2] = target: the molecule itself; test: non-reducing SDS-PAGE with anti-His Western blot; culture supernatants of GS115 and KM71H cultures, induced without or with culture additives

Binder | percent monomeric (with 0.2 M MgSO4) [1] [%] | binding result [2]
human MD-2 (myeloid differentiation factor 2), Q9Y6Y9 19-160 (natural protein) QKQYWVCNSSDASISYTYCDKMQYPISINVNPCIELKRSKGLLHIFYIPRRDLKQLYFNLYITVNTMNLPKRKEVICRGSDDDYSFCRALKGETVNTTISFSFKGIKFSKGKYKCVVEAISGSPEEMLFCLEFVILHQPNSN | 15 | 
human MD-1 (myeloid differentiation factor 1) (natural protein, UniProt O95711 21-162, looked up, A TEV cleavage site lies between the His6-tag and the protein; Secreted by the S. cerevisiae alpha factor prepro peptide; Glycoprotein; also called hMD-1; source: Pichia pastoris GS115 or KM71H (pPIC9K), secreted; not shown: His6, N-terminal, kept) GGGGKAWPTHVVCSDSGLEVLYQSCDPLQDFGFSVEKCSKQLKSNINIRFGIILREDIKELFLDLALMSQGSSVLNFSYPICEAALPKFSFCGRRKGEQIYYAGPVNNPEFTIPQGEYQVLLELYTEKRSTVACANATIMCS |  | binds

Source: PMC3032050, “LPS ligand and culture additives improve production of monomeric MD-1 and 2 in Pichia pastoris by decreasing aggregation and intermolecular disulfide bonding” (Protein Expression and Purification, 2011)
